Source: patent US20020137891A1, “Protein scaffold and its use to multimerise monomeric polypeptides” (priority 1999, published 2002)

B1: sht-GroEL (193-335): shortest minichaperone, short histidine tail GroEL residues 193-335 (protein, UniProt P0A6F5 193-335, looked up, fragment)
chain: MQFDRGYLSPYFINKPETGAVELESPFILLADKKISNIREMLPVLEAVAKAGKPLLIIAEDVEGEALATLVVNTMRGIVKVAAVKAPGFGDRRKAMLQDIATLTGGTVISEEIGMELEKATLEDLGQAKRVVINKDTTTIIDG
modifications: short histidine tail
B2: sht-GroEL (191-345): short histidine tail minichaperone, GroEL residues 191-345 (protein, UniProt P0A6F5 191-345, looked up, fragment)
chain: EGMQFDRGYLSPYFINKPETGAVELESPFILLADKKISNIREMLPVLEAVAKAGKPLLIIAEDVEGEALATLVVNTMRGIVKVAAVKAPGFGDRRKAMLQDIATLTGGTVISEEIGMELEKATLEDLGQAKRVVINKDTTTIIDGVGEEAAIQGR
modifications: short histidine tail

Experiments:
[1] = test system: E. coli SV2 groEL44; assay: In vivo complementation of thermosensitive groEL mutant at 43° C., strain SV2; type: cell-based; settings: for Relative colony forming ability, SV2 groEL44: pJC plasmid, relative to growth at 30° C.
Method: (§1) In vivo complementation experiments. Complementation experiments were performed by transforming electro-competent SV2 or SV6 cells with the pJC series of expression vectors and plating an aliquot of the transformation reactions directly at 43° C. The percentage of viable cells relative to the growth at 30° C. was determined. A representative number of clones which grew at 43° C. were incubated in absence of any selective markers at permissive temperature. After prolonged growth the loss of the pJC plasmids and the ts phenotype were verified. Each experiment was performed in duplicate. Plasmids carrying no groE genes or encoding the GroE proteins were used as negative or positive controls, respectively.

[2] = test system: E. coli SV6 groEL673; assay: In vivo complementation of thermosensitive groEL mutant at 43° C., strain SV6; type: cell-based; settings: for Relative colony forming ability, SV6 groEL673: pJC plasmid, relative to growth at 30° C.
Method: as §1

Molecule	Complementation of the groEL44 defect in SV2 (in words) [1]	Relative colony forming ability, SV2 groEL44 [1]	Complementation of the groEL673 defect in SV6 (in words) [2]	Relative colony forming ability, SV6 groEL673 [2]
B1	complements	0.05-0.09	less well	0.03-0.05
B2		0.01-0.02	complemented	0.07-0.09
